Results on one substance are retold here after EP4450093A1, “CLEAVABLE IMMUNE CELL ENGAGERS” (Synaffix B.V., priority 2023, dated 2024).

The assay has as its target IL-15 receptor on the IL-15 cells of the IL-15 bioassay (Promega, cat.# JA2015) (mouse cell line). Put plainly: cell-based or functional assay.

The substance “trastuzumab (Herceptin), non-modified antibody” gave a Fold induction, IL-15 bioassay of 0.9 fold.
